The values below come from PMC10676354.

Series [1] can be described thus: fluorometric AGE assay, HEK293 mitochondria, MGO 30 min. The settings on record: glycan lost; control: DJ1 WT.
Series [2] can be described thus: fluorometric AGE assay, HEK293 mitochondria, vehicle (PBS). The settings on record: glycan lost; control: DJ1 WT.

B1: DJ1: T19A (protein)
parent chain: MASKRALVILAKGAEEMETVIPVDVMRRAGIKVTVAGLAGKDPVQCSRDVVICPDASLEDAKKEGPYDVVVLPGGNLGAQNLSESAAVKEILKEQENRKGLIAAICAGPTALLAHEIGFGSKVTTHPLAKDKMMNGGHYTYSENRVEKDGLILTSRGPGTSFEFALAIVEALNGKEVAAQVKAPLVLKD
With B1, the results for the “other: mitochondrial protein glycation” value in series [1] and in series [2] were “increases” and “no change”, respectively.
